Data reported in publication PMC3025356, “Mechanism of the Ca^2+-Dependent Interaction between S100A4 and Tail Fragments of Nonmuscle Myosin Heavy Chain IIA” (Journal of Molecular Biology, 2011).

Experiments:
M200 filaments = assay: Stopped-flow turbidity, dissociation of M200 filaments on NaCl jump or dilution; type: biochemical, human
Description: (§1) Fig. 9 Dissociation of M200 filaments by S100A4. (a) Initially, M200 was added (i) from a concentrated stock in 0.5 M NaCl to give a final concentration of 5 μM M200 (with respect to the polypeptide chain) in 100 mM NaCl, 10 mM Hepes, and 0.1 mM Ca^2+ at pH 7.5 and 20 °C. A biphasic rise in turbidity was recorded for 200 s (continuous line). Then 10 μM S100A4 (with respect to monomer concentration) was added (ii), followed by 0.2 mM EGTA (iii) and 1 mM Ca^2+ (iv). […] (b) M200 was diluted (i) into 100 mM NaCl to form filaments as in (a), then 5 μM S100A4 was added (ii), causing a 54% drop in turbidity. A further 5 μM S100A4 (iii) caused turbidity to fall to almost zero. (c) Stopped-flow records monitoring the dissociation of 5 μM M200 filaments on jumping [NaCl] from 100 mM to 120 mM NaCl. Other components of the buffer were 20 mM Hepes, 1 mM Mg^2+, and 100 μM Ca^2+ at pH 7.5 and 20 °C. […] In the presence of 20 μM S100A4 (lower trace), the turbidity decreased by 87% with a rate constant of 0.2 s^− 1.
It is of interest to know whether S100A4 drives depolymerisation solely by binding to free M monomer and allowing the polymer equilibrium to readjust (i.e., via k− 4 and k5), or whether S100A4 also binds to the filament bundle and actively depolymerises an M200 unit (via k6 and k− 7). […] In an attempt to address this question, the dissociation rate of the M200 filament was followed on jumping the NaCl concentration from 100 mM to 120 mM in the absence and in the presence of S100A4 (Fig. 9c). Under these conditions in the absence of S100A4, turbidity dropped to about 50% of its initial value with a profile fitted to a double exponential (k1obs = 0.33 s^− 1 with 12% amplitude and k2obs = 0.037 s^− 1 with 43% amplitude, relative to the total amplitude expected for a full dissociation). Therefore, at the end point of this reaction, the filament concentration decreased by about 2-fold (turbidity is proportional to concentration over this range; Fig. S5b). There should also be a corresponding rise in M200 monomer concentration, but this may be less than accounted for by the loss of filaments if the drop in turbidity was also associated with a rise in small M200 oligomers with a lower specific turbidity. […]

S100A4 = target: T1, S100A4 (Homo sapiens, UniProt P26447); assay: Competition of M32/M16^N with M200 for S100A4 (turbidity); type: biochemical; conditions: turbidity competition
T1 construct: We used full-length S100A4 for this analysis; made in house; host or cells: Escherichia coli BL21(DE3)
Description: as §1
Further information on Scheme 2 was obtained from competition assays. […] An independent estimate of K5 based on the Ca^2+ dependence of the turbidity assay yielded a value of 0.003 μM (see Supplementary Data).
The decrease in fluorescence, […]
that F-M16N binding was slightly faster. […]
A second estimate was calculated from the apparent Ca2+ binding constant observed in the turbidity assay […]

T1 sequence (P26447 whole entry): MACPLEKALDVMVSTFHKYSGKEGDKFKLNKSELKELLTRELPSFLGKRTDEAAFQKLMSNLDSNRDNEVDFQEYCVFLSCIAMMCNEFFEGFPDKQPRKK

B1: M200: His-tagged human NM-MHC IIA residues Q1761-E1960, V1913I substitution (protein, UniProt P35579 1761-1960, looked up, variant V1913I)
chain: QINTDLNLERSHAQKNENARQQLERQNKELKVKLQEMEGTVKSKYKASITALEAKIAQLEEQLDNETKERQAACKQVRRTEKKLKDVLLQVDDERRNAEQYKDQADKASTRLKQLKRQLEEAEEEAQRANASRRKLQRELEDATETADAMNREISSLKNKLRRGDLPFVVPRRMARKGAGDGSDEEVDGKADGAEAKPAE
modifications: His tag
notes: His-tagged human NM-MHC IIA residues Q1761-E1960, V1913I substitution
turbidity change on dilution relative to that with S100A4 (M200 filaments; 2-fold dilution at 100 mM NaCl, no S100A4): 10%
fast rate constant, no S100A4 (M200 filaments; NaCl jump 100 to 120 mM): 0.33 s^− 1
slow rate constant, no S100A4 (M200 filaments; NaCl jump 100 to 120 mM): 0.037 s^− 1
turbidity of initial value after NaCl jump (M200 filaments; NaCl jump, no S100A4): about 50%
binding relative to M32 (S100A4): 3 orders of magnitude tighter than M32
